The supplement of paper PMC9233669
Fewer inactive variants are shown than the library holds.

How the values were obtained:
[1] = test system: biotinyl-Phe-oxazolone; assay: self-aminoacylation, catalytic enhancement (BFO) (fold over background); higher = more active; k-Seq, kA / k0A0; sequences stand for … in GGGAAUGGAUCCACAUCUACGAAUUC…UUCACUGCAGACUUGACGAAGCUG
Summary of the method: (§1)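 Each biotinyl-aminoacyl-oxazolone, at 2–1250 μM, was incubated with mutagenized RNA pools (0.43 μM) carrying a 21-nt variable region. The 50 μL reactions contained HEPES/NaCl/KCl/MgCl2/CaCl2 buffer with 5% acetonitrile at pH 6.9–7.0 and ran for 90 minutes at room temperature. After streptavidin capture, RNA was measured by qPCR in triplicate and by Illumina sequencing, and catalytic enhancement was calculated as median kA over the uncatalyzed rate from a pseudo-first-order fit of per-sequence fraction reacted.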

[2] = test system: biotinyl-Ile-oxazolone; assay: self-aminoacylation, catalytic enhancement (BIO) (fold over background); higher = more active; k-Seq, kA / k0A0; sequences stand for … in GGGAAUGGAUCCACAUCUACGAAUUC…UUCACUGCAGACUUGACGAAGCUG
Summary of the method: as §1

[3] = test system: biotinyl-Met-oxazolone; assay: self-aminoacylation, catalytic enhancement (BMO) (fold over background); higher = more active; k-Seq, kA / k0A0; sequences stand for … in GGGAAUGGAUCCACAUCUACGAAUUC…UUCACUGCAGACUUGACGAAGCUG
Summary of the method: as §1

[4] = test system: biotinyl-Val-oxazolone; assay: self-aminoacylation, catalytic enhancement (BVO) (fold over background); higher = more active; k-Seq, kA / k0A0; sequences stand for … in GGGAAUGGAUCCACAUCUACGAAUUC…UUCACUGCAGACUUGACGAAGCUG
Summary of the method: as §1

[5] = test system: biotinyl-Leu-oxazolone; assay: self-aminoacylation, catalytic enhancement (BLO) (fold over background); higher = more active; k-Seq, kA / k0A0; sequences stand for … in GGGAAUGGAUCCACAUCUACGAAUUC…UUCACUGCAGACUUGACGAAGCUG
Summary of the method: as §1

[6] = test system: biotinyl-Trp-oxazolone; assay: self-aminoacylation, catalytic enhancement (BWO) (fold over background); higher = more active; k-Seq, kA / k0A0; sequences stand for … in GGGAAUGGAUCCACAUCUACGAAUUC…UUCACUGCAGACUUGACGAAGCUG
Summary of the method: as §1

| Sequence | self-aminoacylation [1] | self-aminoacylation [2] | self-aminoacylation [3] | self-aminoacylation [4] | self-aminoacylation [5] | self-aminoacylation [6] |
| --- | --- | --- | --- | --- | --- | --- |
| CUACUUCAAACUAUCGGUAUG [Fam1A.1 aminoacylation ribozyme variant] | 0.842 | 0.715 | 0.557 | 0.813 | 0.601 | 0.665 |
| CUACUUCAAACUAUCGGUCUA [Fam1A.1 aminoacylation ribozyme variant] | 1.08 | 0.944 | 0.729 | 0.912 | 0.696 | 0.62 |
| CUACUUCAAACUAUCGGUCUU [Fam1A.1 aminoacylation ribozyme variant] | 0.957 | 1.03 | 0.833 | 0.968 | 0.822 | 0.796 |
| CUACUUCAAACUAUUGGUCUG [Fam1A.1 aminoacylation ribozyme variant] | 0.825 | 0.995 | 0.897 | 0.869 | 0.92 | 0.501 |
| CUACUUCAAAGAAUCGAUCUG [Fam1A.1 aminoacylation ribozyme variant] | 0.544 | 0.679 | 0.454 | 0.595 | 0.615 | 0.506 |
| CUACUUCAAAGAAUCGGUCUU [Fam1A.1 aminoacylation ribozyme variant] | 2.46 | 1.29 | 0.926 | 1.06 | 1.14 | 2.13 |
| CUACUUCAAAGAAUUGGUCUG [Fam1A.1 aminoacylation ribozyme variant] | 0.605 | 1.18 | 0.954 | 0.912 | 1.08 | 0.806 |
| CUACUUCAAAGAUUCGGUCUG [Fam1A.1 aminoacylation ribozyme variant] | 0.503 | 1.01 | 1.09 | 1.08 | 0.97 | 0.679 |
| CUACUUCAAAGCAUCGGUCUG [Fam1A.1 aminoacylation ribozyme variant] | 0.786 | 0.857 | 0.802 | 0.939 | 0.898 | 0.794 |
| CUACUUCAAAGGAUCGGUCUG [Fam1A.1 aminoacylation ribozyme variant] | 0.753 | 0.925 | 1.04 | 0.902 | 0.912 | 0.738 |
| CUACUUCAACCAAUCAGUCUG [Fam1A.1 aminoacylation ribozyme variant] | 13.9 | 0.747 | 0.541 | 0.701 | 0.794 | 5.54 |
| CUACUUCAACCAAUCGGACUG [Fam1A.1 aminoacylation ribozyme variant] | 10.7 | 0.79 | 0.814 | 0.946 | 0.851 | 4.9 |
| CUACUUCAACGAAUCGGUCUG [Fam1A.1 aminoacylation ribozyme variant] | 4.58 | 0.847 | 0.753 | 0.833 | 1.02 | 3.92 |
| CUACUUCAAGCAAUCGGGCUG [Fam1A.1 aminoacylation ribozyme variant] | 3.43 | 2.01 | 1.8 | 1.61 | 2.58 | 3.87 |
| CUACUUCAAGCAAUCGGUAUG [Fam1A.1 aminoacylation ribozyme variant] | 8.16 | 0.94 | 1.07 | 0.963 | 1.02 | 4.52 |
| CUACUUCAAGCAAUCGGUGUG [Fam1A.1 aminoacylation ribozyme variant] | 3.56 | 1.26 | 1.59 | 1.24 | 1.83 | 3.13 |
| CUACUUCAAGCCAUCGGUCUG [Fam1A.1 aminoacylation ribozyme variant] | 0.772 | 0.89 | 0.729 | 1.04 | 1.15 | 0.696 |
| CUACUUCAAUCAAACGGUCUG [Fam1A.1 aminoacylation ribozyme variant] | 0.638 | 0.637 | 0.639 | 0.794 | 0.671 | 0.481 |
| CUACUUCAAUCAAUCGGUCGG [Fam1A.1 aminoacylation ribozyme variant] | 15.8 | 1.15 | 1.39 | 1.04 | 1.47 | 12.2 |
| CUACUUCAAUCAAUCGGUCUA [Fam1A.1 aminoacylation ribozyme variant] | 13.7 | 0.972 | 0.871 | 0.914 | 1.02 | 7.18 |
| CUACUUCAAUCAAUCGGUCUG [Fam1A.1 aminoacylation ribozyme variant] | 31.7 | 1.01 | 1.04 | 1.03 | 1.44 | 17.9 |
| CUACUUCAAUCAAUCGGUUUG [Fam1A.1 aminoacylation ribozyme variant] | 26.6 | 0.895 | 0.886 | 0.96 | 1.21 | 15.1 |
| CUACUUCAAUCACUCGGUCUG [Fam1A.1 aminoacylation ribozyme variant] | 0.649 | 0.866 | 0.68 | 0.835 | 0.746 | 0.688 |
| CUACUUCAAUCUAUCGGUCUG [Fam1A.1 aminoacylation ribozyme variant] | 1.28 | 0.888 | 0.902 | 0.907 | 0.836 | 0.936 |
| CUACUUCACACAAUCGGCCUG [Fam1A.1 aminoacylation ribozyme variant] | 0.896 | 1.69 | 1.75 | 1.86 | 1.75 | 1.72 |
